Experimental data: publication PMC9927256, “Structural and Functional Characterization of Rv0792c from Mycobacterium tuberculosis: Identifying Small Molecule Inhibitor against HutC Protein” (Microbiology Spectrum, 2022)

Legend:
[1] = biological target: T1, Rv0792c (HutC, GntR family) (Mycobacterium tuberculosis) (UniProt O86331); assay: competitive ALISA
T1 sequence (O86331 whole entry, looked up): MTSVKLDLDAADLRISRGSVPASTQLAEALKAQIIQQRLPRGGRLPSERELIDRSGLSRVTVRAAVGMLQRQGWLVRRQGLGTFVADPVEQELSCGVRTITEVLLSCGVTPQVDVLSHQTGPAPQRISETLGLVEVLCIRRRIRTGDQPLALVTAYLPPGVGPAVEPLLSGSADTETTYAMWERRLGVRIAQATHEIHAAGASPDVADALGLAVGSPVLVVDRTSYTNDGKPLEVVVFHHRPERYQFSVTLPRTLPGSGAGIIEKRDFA

[2] = biological target: T1, Rv0792c (HutC, GntR family) (Mycobacterium tuberculosis); assay: ALISA (plate-immobilized protein)
Rv0792c = biological target: T2, Rv0792c (Mycobacterium tuberculosis, UniProt O86331); assay: […]; EMSA with Cy5-labeled native promoter; assay type: binding
T2 construct: His6-Rv0792c

[3] = biological target: the molecule itself; assay: AUC; sedimentation velocity; Rv0792c at 0.38, 0.76 and 1.52 mg/mL in 25 mM HEPES pH 7.2, 400 mM NaCl, 10% glycerol; 40,000 rpm; absorbance at 280 nm; c(s) analysis with SedFit; S20,w

Molecule: TCTAGTCATTCGTCATAATCCCATCTGTTTCTTCCTCCTTCCGT [Rv0792c_2 aptamer (also Rv0729c_2)]
- IC50 [1]: 109 nM
- Kd [2]: 51 nM

Molecule: COc1cc(/C=C(\C#N)C(=O)c2ccc(O)c(O)c2)cc(I)c1O [I-OMe-Tyrphostin, (2E)-2-(3,4-dihydroxybenzoyl)-3-(4-hydroxy-3-iodo-5-methoxyphenyl) acrylonitrile]
- IC50 (Rv0792c): ~109 nM

B1: Rv0792c from Mycobacterium tuberculosis, wild type, with an amino-terminal histidine tag (natural protein)
chain: T1 sequence (O86331 whole entry, looked up)
notes: also called His6-Rv0792c; (His)6-Rv0792c; not shown: His6, N-terminal, kept
- stoichiometry N [3]: 2
